Assay results from US20120082688A1, “In Vitro Generation of Myeloid Derived Suppressor Cells” (MOUNT SINAI SCHOOL OF MEDICINE, priority 2008, published 2012).
“Also recorded” adds a separate entry of the source.

Legend:
[1] = system: HS-MDSC- and TD-MDSC-mediated suppression of T-cell proliferation; experiment: Suppression assay with iNOS inhibitor / arginase inhibitor: MDSCs co-incubated with B6 splenocytes, anti-CD3/anti-CD28, [3H]-thymidine; type: cell-based, mouse
Method: The suppressive activity of MDSCs was assessed either by co-culturing 1×10^5 129SvEv (using B6 for HSC-MDSCs comparison) splenocytes with various numbers of CD115^+ cells or […] in the presence of anti-CD3/anti-CD28 (0.5 μg/ml) or by co-culturing 2×10^5 129SvEv splenocytes (responder) with an equal number of irradiated (25 Gy) BALB/c splenocytes (stimulator) in the presence of various numbers of CD115^+ or CD115^− cells for 4 days. [^3H]-thymidine was added for the last 8 hours of incubation. For Treg induction, 4×10^6/well of 129SvEv (B6 for HSC-MDSCs) splenocytes and 1×10^6 CD115^+ or CD115^− cells were cocultured for 5 days in the presence of anti-CD3/anti-CD28 (0.5 μg/ml). Foxp3 expression was determined by intracellular staining and NO level in the supernatant was measured by Greiss reagents (Sigma-Aldrich, St. Louis, Mo.).
To delineate which of the aforementioned suppressive mechanism(s) play a major role, the functional activity of HS-MDSCs was evaluated when specific pathway(s) were interfered. To evaluate the role of iNOS, HS-MDSCs (developed from Lin− B6 BM cells) or TD-MDSCs were co-incubated with B6 splenocytes at a 1:2 ratio in the absence or presence of various concentrations of L-NMMA (L) or NOHA (N), or combination of L-NMMA and NOHA. Cells were stimulated with anti-CD3/anti-CD28 and [3H]-thymidine was pulsed for the final 8 hours of a 3-day culture.

HoxB4 ES cells = experiment: Differentiation of HoxB4 ES cells on OP9 stroma in M2 cytokine mix with added cytokines, FACS; type: cell-based, mouse
Method: Next, EB-derived cells were subjected to further differentiation by co-culturing them with OP9 stroma, an M-CSF-deficient cell line that has been widely used for in vitro differentiation of ES cells. For this, day 6 EBs (except otherwise specified) were trypsinized, and dissociated cells were seeded onto semiconfluent OP9 monolayers (irradiated immediately before coculture) at a density of 1×10^5/ml (2 ml/well, 6-well plate), and cultured in medium containing IMDM, 15% FCS (BenchMark, Gemcell), 2 mM L-glutamine, 100 U/mL penicillin and 100 μg/mL streptomycin, 1 ug/ml doxycycline, 1.5×10^−4M MTG, plus M1 cytokine mix composed of 1% c-kit Ligand (KL; CM), […] murine IL-6, and 0.5% WEHI (IL-3, CM). 2 days later, the medium was removed and replaced with 3 ml of fresh medium containing M2 cytokine mix consisting of 1% KL supernant, 0.5% murine thrombopoietin (TPO, CM), 40 ng/ml murine VEGF, 50 ng/ml murine Flt-3L or with medium containing M2 plus 10 ng/ml murine M-CSF (or M2+M-CSF) (all mouse recombinant cytokines were purchased from Peprotec Inc.), and medium was changed every other day thereafter. Unless otherwise specified, non-adherent and loosely attached cells were harvested after 10 days coculture in M2+M-CSF and used for morphologic, phenotypic, developmental, and functional analysis.
To enhance the production of ES cell-derived myeloid cells, additional cytokines were tested, including the colony-stimulating factor family members M-CSF and GM-CSF. […] For experiments in FIGS. 1C and D, Hoxb4 ES cells were differentiated with the same procedure as described in FIG. 1A, but in the last step cells were cultured for 10 day in M2 or M2 supplanted with M-CSF or GM-CSF (FIG. 1C) or M2 plus various concentration of M-CSF (FIG. 1D).

[2] = cytokine added to M2 cultures, 10 days

Molecule: CNC(=N)NCCC[C@H](N)C(=O)O [L-NMMA, N^G-monomethyl-L-arginine]
- reversal of MDSC suppression of T cells ([1]; 5 μM, MDSC:splenocyte 1:2, P<0.05 HSC MDSC, P<0.01 TD-MDSC): substantially reversed
- reversal of suppression of HS- and TD-MDSCs against T-cell proliferation ([1]; various concentrations, dose-dependent manner): partially but significantly reversed

Molecule: N=C(NO)NCCC[C@H](N)C(=O)O [NOHA]
- interference with suppressive activity of HSC-MDSC or TD-MDSC ([1]; 500 μM, MDSC:splenocyte 1:2, P>0.05): did not interfere significantly; also recorded: minimal effects

B1: macrophage colony-stimulating factor (protein, UniProt P07141 33-552, looked up)
Macrophage colony-stimulating …: KEVSEHCSHMIGNGHLKVLQQLIDSQMETSCQIAFEFVDQEQLDDPVCYLKKAFFLVQDIIDETMRFKDNTPNANATERLQELSNNLNSCFTKDYEEQNKACVRTFHETPLQLLEKIKNFFNETKNLLEKDWNIFTKNCNNSFAKCSSRDVVTKPDCNCLYPKATPSSDPASASPHQPPAPSMAPLAGLAWDDSQRTEGSSLLPSELPLRIEDPGSAKQRPPRSTCQTLESTEQPNHGDRLTEDSQPHPSAGGPVPGVEDILESSLGTNWVLEEASGEASEGFLTQEAKFSPSTPVGGSIQAETDRPRALSASPFPKSTEDQKPVDITDRPLTEVNPMRPIGQTQNNTPEKTDGTSTLREDHQEPGSPHIATPNPQRVSNSATPVAQLLLPKSHSWGIVLPLGELEGKRSTRDRRSPAELEGGSASEGAARPVARFNSIPLTDTGHVEQHEGSSDPQIPESVFHLLVPGIILVLLTVGGLLFYKWKWRSHRDPQTLDSSVGRPEDSSLTQDEDRQVELPV
notes: murine recombinant cytokine added to M2 cocktail
- production of both CD115^+ populations (HoxB4 ES cells; M2 plus cytokine, 10 days, dose-dependent): significantly augmented
- increase of frequency of both CD115 positive populations (HoxB4 ES cells; added along with M2): over 2 fold
- percentages of CD115^+ cells (HoxB4 ES cells; higher concentration, 20 ng/ml): decreased

B2: granulocyte macrophage colony stimulating factor (protein, UniProt P01587 18-141, looked up)
Granulocyte-macrophage …: APTRSPITVTRPWKHVEAIKEALNLLDDMPVTLNEEVEVVSNEFSFKKLTCVQTRLKIFEQGLRGNFTKLKGALNMTASYYQTYCPPTPETDCETQVTTYADFIDSLKTFLTDIPFECKKPGQK
notes: colony-stimulating factor family cytokine added to M2 cultures
- change of CD115+Ly-6C^+ cells (HoxB4 ES cells; [2]): dramatic decrease
- change of CD115^−Ly-6C^+ cells (HoxB4 ES cells; [2]): marked increase
